Experimental data from patent US20180071366A1.
Each block holds one binder with its values, some of them ahead of it. Numbered stars: 1 amine (or outer) side, 2 acyl side, 3 side chain; on linkers, the order of the positions; unused ones are H or OH. Bridge positions count the residues as written; N and C are the ends. Square brackets hold non-standard residues; d marks the D form. * marks the point of attachment. C20 diacid = O=C(O)CCCCCCCCCCCCCCCCCCC(=O)*; γGlu = O=C(O)[C@H](CCC(=O)[*:2])N[*:1]; Hyp = O=C(O)[C@@H]1C[C@@H](O)CN1; NMeI = CC[C@H](C)[C@H](NC)C(=O)O; Aad = N[C@@H](CCCC(=O)O)C(=O)O; Orn = NCCC[C@H](N)C(=O)O; Dab = NCC[C@H](N)C(=O)O; Dap = NC[C@H](N)C(=O)O; Sar = CNCC(=O)O

Assays:
[1] = biological target: recombinant human amylin 3 receptor (hAMYR3) (human), P30988; experiment: cell-based or functional assay
[2] = biological target: recombinant human calcitonin receptor (hCT-R) (human), P30988; experiment: cell-based or functional assay
Chain of recombinant human calcitonin receptor (hCT-R) (human), P30988 (P30988 25-474): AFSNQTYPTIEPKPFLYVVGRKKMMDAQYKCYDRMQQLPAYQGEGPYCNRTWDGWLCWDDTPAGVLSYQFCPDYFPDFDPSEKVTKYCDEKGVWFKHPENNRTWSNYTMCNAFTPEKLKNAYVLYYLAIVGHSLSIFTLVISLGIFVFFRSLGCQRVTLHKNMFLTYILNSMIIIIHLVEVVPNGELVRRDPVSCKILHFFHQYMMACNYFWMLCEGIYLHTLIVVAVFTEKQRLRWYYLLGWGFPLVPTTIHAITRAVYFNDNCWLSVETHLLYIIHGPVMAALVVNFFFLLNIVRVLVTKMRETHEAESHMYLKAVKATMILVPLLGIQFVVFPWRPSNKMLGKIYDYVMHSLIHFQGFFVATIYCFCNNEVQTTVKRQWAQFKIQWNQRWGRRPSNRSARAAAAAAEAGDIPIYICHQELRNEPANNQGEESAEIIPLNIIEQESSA

Chain of recombinant human amylin 3 receptor (hAMYR3) (human), P30988 (P30988 25-474, chain 1 of 2): as the sequence (P30988 25-474) above
Chain of recombinant human amylin 3 receptor (hAMYR3) (human), P30988 (O60896 24-148, chain 2 of 2, further chain): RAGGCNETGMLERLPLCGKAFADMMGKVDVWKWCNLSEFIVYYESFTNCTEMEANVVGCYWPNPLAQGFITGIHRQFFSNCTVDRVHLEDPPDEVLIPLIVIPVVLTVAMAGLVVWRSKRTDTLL

B1: Compound 46 (peptide)
peptide: {C20 diacid-γGlu}-R[Dab]GTATDATERLAHFLQRSSF[Sar]A[NMeI]LSSTEVGSNT[Hyp]-NH2
modifications: lactam 2-7
SMILES: CC[C@H](C)[C@@H](C(=O)N[C@@H](CC(C)C)C(=O)N[C@@H](CO)C(=O)N[C@@H](CO)C(=O)N[C@H](C(=O)N[C@@H](CCC(=O)O)C(=O)N[C@H](C(=O)NCC(=O)N[C@@H](CO)C(=O)N[C@@H](CC(N)=O)C(=O)N[C@H](C(=O)N1C[C@H](O)C[C@H]1C(N)=O)[C@@H](C)O)C(C)C)[C@@H](C)O)N(C)C(=O)[C@H](C)NC(=O)CN(C)C(=O)[C@H](Cc1ccccc1)NC(=O)[C@H](CO)NC(=O)[C@H](CO)NC(=O)[C@H](CCCNC(=N)N)NC(=O)[C@H](CCC(N)=O)NC(=O)[C@H](CC(C)C)NC(=O)[C@H](Cc1ccccc1)NC(=O)[C@H](Cc1c[nH]cn1)NC(=O)[C@H](C)NC(=O)[C@H](CC(C)C)NC(=O)[C@H](CCCNC(=N)N)NC(=O)[C@H](CCC(=O)O)NC(=O)[C@@H](NC(=O)[C@H](C)NC(=O)[C@@H]1CC(=O)NCC[C@H](NC(=O)[C@H](CCCNC(=N)N)NC(=O)CC[C@H](NC(=O)CCCCCCCCCCCCCCCCCCC(=O)O)C(=O)O)C(=O)NCC(=O)N[C@@H]([C@@H](C)O)C(=O)N[C@@H](C)C(=O)N[C@@H]([C@@H](C)O)C(=O)N1)[C@@H](C)O
hAMYR3 EC50 [nM] (cAMP formation, 1321N1 cells expressing hAMYR3) [1]: 5.5 nM
hCT-R EC50 [nM] (cAMP formation, 1321N1 cells expressing hCT-R) [2]: 7.5 nM

B2: Compound 49 (peptide)
peptide: {C20 diacid-γGlu}-R[Dab]GTATEATERLAHFLQRSSF[Sar]A[NMeI]LSSTEVGSNT[Hyp]-NH2
modifications: lactam 2-7
SMILES: CC[C@H](C)[C@@H](C(=O)N[C@@H](CC(C)C)C(=O)N[C@@H](CO)C(=O)N[C@@H](CO)C(=O)N[C@H](C(=O)N[C@@H](CCC(=O)O)C(=O)N[C@H](C(=O)NCC(=O)N[C@@H](CO)C(=O)N[C@@H](CC(N)=O)C(=O)N[C@H](C(=O)N1C[C@H](O)C[C@H]1C(N)=O)[C@@H](C)O)C(C)C)[C@@H](C)O)N(C)C(=O)[C@H](C)NC(=O)CN(C)C(=O)[C@H](Cc1ccccc1)NC(=O)[C@H](CO)NC(=O)[C@H](CO)NC(=O)[C@H](CCCNC(=N)N)NC(=O)[C@H](CCC(N)=O)NC(=O)[C@H](CC(C)C)NC(=O)[C@H](Cc1ccccc1)NC(=O)[C@H](Cc1c[nH]cn1)NC(=O)[C@H](C)NC(=O)[C@H](CC(C)C)NC(=O)[C@H](CCCNC(=N)N)NC(=O)[C@H](CCC(=O)O)NC(=O)[C@@H](NC(=O)[C@H](C)NC(=O)[C@@H]1CCC(=O)NCC[C@H](NC(=O)[C@H](CCCNC(=N)N)NC(=O)CC[C@H](NC(=O)CCCCCCCCCCCCCCCCCCC(=O)O)C(=O)O)C(=O)NCC(=O)N[C@@H]([C@@H](C)O)C(=O)N[C@@H](C)C(=O)N[C@@H]([C@@H](C)O)C(=O)N1)[C@@H](C)O
hAMYR3 EC50 [nM] (cAMP formation, 1321N1 cells expressing hAMYR3) [1]: 0.442 nM
hCT-R EC50 [nM] (cAMP formation, 1321N1 cells expressing hCT-R) [2]: 1.04 nM

B5: Compound 45 (peptide)
peptide: {C20 diacid-γGlu}-R[Dap]GTATDATERLAHFLQRSSF[Sar]A[NMeI]LSSTEVGSNT[Hyp]-NH2
modifications: lactam 2-7
SMILES: CC[C@H](C)[C@@H](C(=O)N[C@@H](CC(C)C)C(=O)N[C@@H](CO)C(=O)N[C@@H](CO)C(=O)N[C@H](C(=O)N[C@@H](CCC(=O)O)C(=O)N[C@H](C(=O)NCC(=O)N[C@@H](CO)C(=O)N[C@@H](CC(N)=O)C(=O)N[C@H](C(=O)N1C[C@H](O)C[C@H]1C(N)=O)[C@@H](C)O)C(C)C)[C@@H](C)O)N(C)C(=O)[C@H](C)NC(=O)CN(C)C(=O)[C@H](Cc1ccccc1)NC(=O)[C@H](CO)NC(=O)[C@H](CO)NC(=O)[C@H](CCCNC(=N)N)NC(=O)[C@H](CCC(N)=O)NC(=O)[C@H](CC(C)C)NC(=O)[C@H](Cc1ccccc1)NC(=O)[C@H](Cc1c[nH]cn1)NC(=O)[C@H](C)NC(=O)[C@H](CC(C)C)NC(=O)[C@H](CCCNC(=N)N)NC(=O)[C@H](CCC(=O)O)NC(=O)[C@@H](NC(=O)[C@H](C)NC(=O)[C@@H]1CC(=O)NC[C@H](NC(=O)[C@H](CCCNC(=N)N)NC(=O)CC[C@H](NC(=O)CCCCCCCCCCCCCCCCCCC(=O)O)C(=O)O)C(=O)NCC(=O)N[C@@H]([C@@H](C)O)C(=O)N[C@@H](C)C(=O)N[C@@H]([C@@H](C)O)C(=O)N1)[C@@H](C)O
hAMYR3 EC50 [nM] (cAMP formation, 1321N1 cells expressing hAMYR3) [1]: 279 nM
hCT-R EC50 [nM] (cAMP formation, 1321N1 cells expressing hCT-R) [2]: 299 nM

Next, values leading:

hAMYR3 EC50 [nM] (cAMP formation, 1321N1 cells expressing hAMYR3) [1]: 7.7 nM
hCT-R EC50 [nM] (cAMP formation, 1321N1 cells expressing hCT-R) [2]: 10.8 nM
B3: Compound 47 (peptide)
peptide: {C20 diacid-γGlu}-R[Orn]GTATDATERLAHFLQRSSF[Sar]A[NMeI]LSSTEVGSNT[Hyp]-NH2
modifications: lactam 2-7
SMILES: CC[C@H](C)[C@@H](C(=O)N[C@@H](CC(C)C)C(=O)N[C@@H](CO)C(=O)N[C@@H](CO)C(=O)N[C@H](C(=O)N[C@@H](CCC(=O)O)C(=O)N[C@H](C(=O)NCC(=O)N[C@@H](CO)C(=O)N[C@@H](CC(N)=O)C(=O)N[C@H](C(=O)N1C[C@H](O)C[C@H]1C(N)=O)[C@@H](C)O)C(C)C)[C@@H](C)O)N(C)C(=O)[C@H](C)NC(=O)CN(C)C(=O)[C@H](Cc1ccccc1)NC(=O)[C@H](CO)NC(=O)[C@H](CO)NC(=O)[C@H](CCCNC(=N)N)NC(=O)[C@H](CCC(N)=O)NC(=O)[C@H](CC(C)C)NC(=O)[C@H](Cc1ccccc1)NC(=O)[C@H](Cc1c[nH]cn1)NC(=O)[C@H](C)NC(=O)[C@H](CC(C)C)NC(=O)[C@H](CCCNC(=N)N)NC(=O)[C@H](CCC(=O)O)NC(=O)[C@@H](NC(=O)[C@H](C)NC(=O)[C@@H]1CC(=O)NCCC[C@H](NC(=O)[C@H](CCCNC(=N)N)NC(=O)CC[C@H](NC(=O)CCCCCCCCCCCCCCCCCCC(=O)O)C(=O)O)C(=O)NCC(=O)N[C@@H]([C@@H](C)O)C(=O)N[C@@H](C)C(=O)N[C@@H]([C@@H](C)O)C(=O)N1)[C@@H](C)O

hAMYR3 EC50 [nM] (cAMP formation, 1321N1 cells expressing hAMYR3) [1]: 0.02 nM
hCT-R EC50 [nM] (cAMP formation, 1321N1 cells expressing hCT-R) [2]: 0.107 nM
B4: Compound 48 (peptide)
peptide: {C20 diacid-γGlu}-R[Dap]GTAT[Aad]ATERLAHFLQRSSF[Sar]A[NMeI]LSSTEVGSNT[Hyp]-NH2
modifications: lactam 2-7
SMILES: CC[C@H](C)[C@@H](C(=O)N[C@@H](CC(C)C)C(=O)N[C@@H](CO)C(=O)N[C@@H](CO)C(=O)N[C@H](C(=O)N[C@@H](CCC(=O)O)C(=O)N[C@H](C(=O)NCC(=O)N[C@@H](CO)C(=O)N[C@@H](CC(N)=O)C(=O)N[C@H](C(=O)N1C[C@H](O)C[C@H]1C(N)=O)[C@@H](C)O)C(C)C)[C@@H](C)O)N(C)C(=O)[C@H](C)NC(=O)CN(C)C(=O)[C@H](Cc1ccccc1)NC(=O)[C@H](CO)NC(=O)[C@H](CO)NC(=O)[C@H](CCCNC(=N)N)NC(=O)[C@H](CCC(N)=O)NC(=O)[C@H](CC(C)C)NC(=O)[C@H](Cc1ccccc1)NC(=O)[C@H](Cc1c[nH]cn1)NC(=O)[C@H](C)NC(=O)[C@H](CC(C)C)NC(=O)[C@H](CCCNC(=N)N)NC(=O)[C@H](CCC(=O)O)NC(=O)[C@@H](NC(=O)[C@H](C)NC(=O)[C@@H]1CCCC(=O)NC[C@H](NC(=O)[C@H](CCCNC(=N)N)NC(=O)CC[C@H](NC(=O)CCCCCCCCCCCCCCCCCCC(=O)O)C(=O)O)C(=O)NCC(=O)N[C@@H]([C@@H](C)O)C(=O)N[C@@H](C)C(=O)N[C@@H]([C@@H](C)O)C(=O)N1)[C@@H](C)O
